According to the DeepSol protein solubility set:

Assay: soluble on expression in E. coli; label from the status in PepcDB or PDB records

Sequence: MHEFRDYYGHRVRLAFADHPFSPSPGHVWVICRYGGRWLLTDHPRRGLEFPGGKVEEGETAAEAAAREVMEETGGIVGRLEYIGQYKVEPDIVKNIYFADIAALVERGSYLETNGPVLLEALPDDIRSDQRFSYFMKDDVLSLALAKLKQRGLID
- soluble on expression in E. coli: not soluble

Sequence: MELKDRIKAARKHAHLSQVQLAQAVGMTQTSISDLERGKSRATSFVAQIAGACGVNPLWLAEGRGEMLAERGQANAGPNASWLGAVESWDDETPLDADEIELPFYKEIELSGGKGSTVILQTGGRKLRFGKYTLRKKNIDPASAACVTVSGNSMEPVLPDGSTVGVDTSARTIKDGDMYAFDHDGQLRVKLLYRLPGGGLRIRSFNSDEHPDERYEPQEAAEHINVIGRVFWYSVLV
- soluble on expression in E. coli: not soluble

Sequence: MAGQISPTRSALLASKASLKTANGGADLLKRKRDALIGEFFALVKDALAAREQLSSVSKGAYTSLFGAKAWDSPEAVESLSLAGTGDYAVDMQIESIYGVKVPKINIPERAAQADFSPINVGARTIQASNDFGGVLEAIVKVAATETKLRRIGEEIKKTSRRVNALEQVVIPGIHDDIRFIRSVLDQREREAGYTQKKIKAKIEGKNKEAREAAAATSHGSAADAAALEHHHHHH
- soluble on expression in E. coli: not soluble

Sequence: GAKSIYEFQVNAADGKPYDLSQHKGHPLLIYNVASRCGYTKGGYETATTLYNKYKGQGFTVLAFPCNQFAGQEPGTALEVKEFACTRFKADFPIMAKIDVNGSKAHPLYEFMKATIPGLFGTKAIKWNFTSFLIDRHGVPVERFSPGASVEDIEKKLLPLLGGARI
- soluble on expression in E. coli: soluble

Sequence: MKKFTLEEFLDLLKKYNVEEIEGVKIEGDLEIEFEGSSIDLSAIAPLYSMLSEFGNFLYHANMALGYLQRLSAALGIPTPFAAQPQLAPAAPAAPAEVPAVEELKIPAELVRAKFEPYKEEYPGKIEEVVLGATKADGGTREYTVTLGGERSLAFYTFDAPQPHLPAIAIDVFDRRPMLAKAVRMHYEDVLDNPAEWARKCVKKFGADLVTLHLISTDPLLDDTPASEAVKVLEDVLQAVKCPIIVGGSGNKEKDPEVLEKAAEVAEGERIMLASATLDMDWERIANAAKKYGHVVLSWTQMDINNQKTLNRYLLKRVEMPRDSIVMDPTTAALGYGLDYAFTNMERIRISGLKGDTDLNFPISSGTTNAWGAREAWMVDSPIEEDTPWGPRELRGPIWEIITGLTLSLAGVDLFMMMHPVAVAVLKEVFNTLGGKVSGGVADPGEWIFMEV
- soluble on expression in E. coli: not soluble

Sequence: MGSDKIHHHHHHMAGEDRDMETETETVCPGNTAGRFAAGEDPAKRDQILAGAWRVFKLKGFDAASMNDITREAGVSKGTIYVYFSNKEDLFAALVDHHRQEFATSMRNILAGTEEVRKGLEQFGKAFANKMICSDMIPAMRSVIGVIDRMPKLAQRFFIAAPNNVRTVLQDFIEHHIALGHLKVDDVELAARQYIELSTGTFFKLRLFGEIDGPVPEEELDRVIASAIKVFMAAYGTDKV
- soluble on expression in E. coli: not soluble

Sequence: MAHHHHHHMSFAGLQKRLKNKAVATTTTNSTPPSSDAKTDNIESSSSVYDVAAREARANHEERKRQRSPHDKENTAYNPTINERNGPADMLSDHPSVEKASSKTLTETEFLERRHLAEEVVLQCAEAMSRNMELAATSIDKIDIKKESEVYDMSGLPLPLCQFLEQRLQRSSDATAMLISTCEEEEHNLVSALRSPSNLPMLFPPQVEDFVTTLRTLWLALCWHWVMALRGKEGNEGKEVSENGWSYNVYLLSRHALPITVRNTRGRDVALALQAWQEAYRVRQNMLDFLAYILHDMGVVLRFSGDDASKGDENLRIVPPKIADSIFCMVQHLRRRDFTTVRQAYVELTMGTANWKLGLFSGGEVHMRRSMERIERRRIEHLLHNERAVRLLHVLRELIEFVQKNEVMLLHTGIFAREKSMKEHSP
- soluble on expression in E. coli: not soluble

Sequence: MGSDKIHHHHHHMIDQLYRKAVLTVAERPQVEQLARQKMWNLAERFVAGESIESAIQAVQALERDGIAGNLDLLGEFIDSPAKCTEFADDVIKLIEAAHAAGIKPYVSIKLSSVGQGKDENGEDLGLTNARRIIAKAKEYGGFICLDMEDHTRVDVTLEQFRTLVGEFGAEHVGTVLQSYLYRSLGDRASLDDLRPNIRMVKGAYLEPATVAYPDKADVDQNYRRLVFQHLKAGNYTNVATHDERIIDDVKRFVLAHGIGKDAFEFQMLYGIRRDLQKQLAAEGYRVRVYLPYGRDWYAYFSRRIAETPRNAAFVVQGMLKG
- soluble on expression in E. coli: not soluble

Sequence: MIYRFTIISDEVDDFVREIQIDPEATFLDFHEAILKSVGYTNDQMTSFFICDDDWEKEKEVTLEEMDDNPEMDSWIMKETTISELVEDEKQKLLYVFDYMTERCFFIELSEIITGKDMNGAKCTKKSGDAPPQTVDFEEMAAASGSLDLDENFYGDQDFDMEDFDQEGFDIGGNAGGSYEEEKFLEHHHHHH
- soluble on expression in E. coli: soluble

Sequence: MSLSLSSIIKNIPKAELHLHIEGSLTPELMWRLAEKHSVSLPYASVEEIEAAYNFEDLQSFLDLYYAGAGVLRDEDDFFALMWEYLTRCHEDNIVHTEIMFDPQTHTERDIGFDIFMPGFLKAMEKAKDEYGISSYLIMSFLRHLPEDAAFDTLSAAEPYYEHITAVGLDSSELGHPPSKFERVFKKAKALGFKIVAHAGEEGPASYIWEAIELLDVDRIDHGVRCQEDEALMDLLKERQIPLTVCPLSNLKLCVINDMKDHNIVQLLDAGLLVTVNSDDPTYFGGFLNDNFEALHQSLGIDEKTVRTLVANSFKASFLPQEQKNQLVEKVLSAEGHHHHHH
- soluble on expression in E. coli: soluble

Sequence: MCRYARSYLLHAFDYTLFVKARLNMAFMISMPAIELAGLTIQVCQFDPQQFDEDQQHYLAPPTYHSLHKAVVKRQAEFVAGRKLAQQALKQIGQGYDRPIAIGTHREPLWPAGITGSIAHCDGWAVCTVLKAEHLSLGIDIEHRLAHQTASEVQAIIGTAQEWALLAQQFDLASAVTLLFSAKESLFKALFPQVHLYLDFCDAQLSSLEPNKMSFTLTRVPNAAQQSCEVYFRWFEQQRVLTVSVLPMLGKIEYHVPTLPT
- soluble on expression in E. coli: not soluble

Sequence: MKLQKQLLEAVEHKQLRPLDVQFALTVAGDEHPAVTLAAALLSHDAGEGHVCLPLSRLENNEASHPLLATCVSEIGELQNWEECLLASQAVSRGDEPTPMILCGDRLYLNRMWCNERTVARFFNEVNHAIEVDEALLAQTLDKLFPVSDEINWQKVAAAVALTRRISVISGGPGTGKTTTVAKLLAALIQMADGERCRIRLAAPTGKAAARLTESLGKALRQLPLTDEQKKRIPEDASTLHRLLGAQPGSQRLRHHAGNPLHLDVLVVDEASMIDLPMMSRLIDALPDHARVIFLGDRDQLASVEAGAVLGDICAYANAGFTAERARQLSRLTGTHVPAGTGTEAASLRDSLCLLQKSYRFGSDSGIGQLAAAINRGDKTAVKTVFQQDFTDIEKRLLQSGEDYIAMLEEALAGYGRYLDLLQARAEPDLIIQAFNEYQLLCALREGPFGVAGLNERIEQFMQQKRKIHRHPHSRWYEGRPVMIARNDSALGLFNGDIGIALDRGQGTRVWFAMPDGNIKSVQPSRLPEHETTWAMTVHKSQGSEFDHAALILPSQRTPVVTRELVYTAVTRARRRLSLYADERILSAAIATRTERRSGLAALFSSRE
- soluble on expression in E. coli: soluble

Sequence: MGSDKIHHHHHHMEIHSSAAAEVFPVCRSLLGKLPAHSHNRSVAPTVCDYYPQIMKTYNSKMTTQHSSDIRNSQNISASFVTPHDAPVTSRKYVPKFNSNNHRIKTAAAFEKGSDIYHAVRPNYPNSVIELLNLSPNSRVLDIGCGTGKLTEQIAQQTSSVYALDPSKDMLDSFRSTLDIPSWQATAEQTAVSDSRFSTLTCAQTWHWVEPLAASAELDRISTDDAQLLLVWNTLDVSVPWVHRLSRIMHSGDTLAEGFIPHVAQPWELVSVLRGKHAQELYPDQIHTLAHTRSYWLRASEKTREKLTHNLSWYLTDHLELPSTSLVEIPYRFDAFLYKKALVKTQ
- soluble on expression in E. coli: not soluble

Sequence: LKSESAEKTREVLWQQYYASNPPDHAVLEVLATPVREALLARFGQHQGSVVPAIDLPELRSVLQQFDSFGKRWEAILLQVLEGIKPNESQVGLPYLSELINKELMILLPSNS
- soluble on expression in E. coli: soluble

Sequence: MGHHHHHHSHMKNMEQQHIEVVGKLGSTYGIRGWLRIYSSTEQAESIFDYQPWFLKIKGEWQSIELENWRYHNHEIIVKLKGVDDREAAQILANVEIGVDLSVFPELEEGDYYWHDLIGCTVVNLEGYTMGTVTEMMETGSNDVLVVKANTKDAFGKQERLIPFLYEQVVKRVDLTTKTIEVDWDAGF
- soluble on expression in E. coli: soluble

Sequence: MSLVTIVAPMDEILERAHVVALPMRVKFRGIMVREAVLFDGPKGWGEFSPFVEYGVQEAAQWLRCGLEMAFQGPPPMIRDAVEVNATIPAVSPDQVPEILARYPGCTTVKVKVAEGDDAARVAMVREVLPDARIRVDANRGWTVDQAVAASKHLGELEYMEQPCASVAELAELRRRISVPIAADESIRRVSDPYEVARLHAADVAVVKAAPLGGPRNIVDIAKFYQQRGLSLTVASALDTGVGMNAGIAVAAAIDSNPAGLATQRLFVEDVTEPRTIVDGKMSVEMLAPDPARLAEFEVTGPRRDWWLDRVRGALECLHDFIPEGHHHHHH
- soluble on expression in E. coli: not soluble

Sequence: MQEGVKVVVDSRELRSEVVKRLKLLGVKLEVKTLDVGDYIISEDVAIERKSANDLIQSIIDGGLFDQVKRLKEAYSRPIMIVEGSLYGIRNVHPNAIRGAIAAVTVDFGVPIIFSSTPEETAQYIFLIAKREQEEREKPVRIR
- soluble on expression in E. coli: soluble

Sequence: MIGDFWKESNGLATANDMDKNLAYMYTMKKKARGQLLFTKEKLAEYGSKVGLFPGVKDWFRRIRQYGADREVIIEHYIISSGLKEMIEGTSIAKDFKEIYATSFYFDDDGVAVWPAQVVNYTNKTQFLFRISKGVLNVNDEAVNDSFAPDEIRVPFHNMIYIGDSDTDIPCMKLVNSHGGYSIGVFNPKERNEEKAKKRVYKMIRDNRIGYF
- soluble on expression in E. coli: not soluble

Sequence: RKPSFLALPGHLVKSEETVILQCWSDVMFEHFLLHREGKFNNTLHLIGEHHDGVSKANFSIGPMMPVLAGTYRCYGSVPHSPYQLSAPSDPLDMVIIGLYEKPSLSAQPGPTVQAGENVTLSCSSRSSYDMYHLSREGEAHERRLPAVRSINGTFQADFPLGPATHGGTYRCFGSFRDAPYEWSNSSDPLLVSVT
- soluble on expression in E. coli: soluble

Sequence: MADTTILDTTCSSTLAANVEFSHATDSAIGISLKNATITEAEGVPNLKETGYDCVRYMGTCNGGQIYLGRERKKLKDYVAIKKFAIDDVDDYAAIAKESSNLRLMHHPNIIELCECFVYERSIYQITPAMNLGSLFDIVFEYMKWGINEKSAAAITRQLLDALSYLHQRRYIHRDLKPKHILIDSSGNVKLSGFRFMIELNHHLDCVFEFDAHLQNQLYYLAPEVLAQNIHGYTSKSDIYMLGISICEAINGVMPFGELEPLEMLHRKLNGQVPRPVDMISLKDDQKMGLDISHRPQEHLTRRFSKEMHEFIANCLDYDPQQRGSASDLKSSAWLGSKIHKNLGPVDVRQELNLDYAHFDLSLWEQEPLIPMEPDQKYEIVFDYSPIS
- soluble on expression in E. coli: not soluble

Sequence: MGSDKIHHHHHHMTKLPATSDIYISFFMFTTNLQPDNLDYRRIVVAHIKKLQRFGYSGFEFPIAPGLPENYAQDLENYTNLRHYLDSEGLENVKISTNVGATRTFDPSSNYPEQRQEALEYLKSRVDITAALGGEIMMGPIVIPYGVFPTTDFNEPIWSDELQEHLKVRYANAQPILDKLGEYAEIKKVKLAIEPITHWETPGPNKLSQLIEFLKGVKSKQVGVVIDSAHEILDGEGPEIFKTQVEYLAQQGRLHYVQVSPPDRGALHTSWLPWKSFLTPIVKVYDGPIAVEIFNAIPAFTNSLRLTRRKFWIPDEDPPNQYPNAYDIADEAIKVTRKELKKIGSK
- soluble on expression in E. coli: not soluble

Sequence: MAGAGMYGDCSLAATLSYGAVLEPYLHPKPGGVTPYASEGGKSFGDFVLHATLSSRLLAWACLKAWKNGPIGVIASVKERYLREVVPRFKGNIAYGTFMLMAPLAVAIALSKSSEPEELVTTARDTIYCCTGRRESLLHYKILRRLSPSHLGRYRGELPDVASGGERDIPPYPLLLKLNSWDMVHRELAKGYPITLEAYRHSLNRVKEGRSVEEALLEALLKVLAEHGDTLIFQKYGGRAFKMAREEARVAFHVSERWGVRHAITWLERLWRGREWNPGAALDIVAVASGLLLITISRDASS
- soluble on expression in E. coli: not soluble
